Measured values published in the RNAGym collection of RNA variant scans (doi:10.7554/elife.80360).

B1: CPEB3 Ribozyme (parent)
chain: GGGGGCCACAGCAGAAGCGUUCACGUCGCGGCCCCUGUCAGAUUCUGGUGAAUCUGCGAAUUCUGCUGU

Variants of: B1
Test: self-cleavage, relative activity (ratio to wild type); higher = more cleavage; co-transcriptional

First: GGGGGCGACAGCAGAAGCGUUCACGUCGCGGCCCCUGUCAGAUUCUGGUGAAUCUGCGAAUUCCGCUGU [C7G U64C]
Second: GGGGGCGACAGCAGAAGCGUUCACGUCGCGGCCCCUGUCAGAUUCUGGUGAAUCUGCGAAUUCAGCUGU [C7G U64A]
The self-cleavage of the first is lower: 0.17 for the first, 0.279 for the second.

Compared with GGGGGCGACAGCAGAAGCGUUCACGUCGCGGCCCCUGUCAGAUUCUGGUGAAUCUGCGAAUUCGGCUGU [C7G U64G], GGGGGCUACAGCAGAAGCGUUCACGUCGCGGCCCCUGUCAGAUUCUGGUGGAUCUGCGAAUUCUGCUGU [C7U A51G] is higher in self-cleavage: 0.232 for the first, 0.984 for the second.

First: GGGGGCUACAGCAGAAGCGUUCACGUCGCGGCCCCUGUCAGAUUCUGGUGUAUCUGCGAAUUCUGCUGU [C7U A51U]
Second: GGGGGCUACAGCAGAAGCGUUCACGUCGCGGCCCCUGUCAGAUUCUGGUGCAUCUGCGAAUUCUGCUGU [C7U A51C]
The self-cleavage of the first is higher: 0.976 for the first, 0.966 for the second.

Going from GGGGGCUACAGCAGAAGCGUUCACGUCGCGGCCCCUGUCAGAUUCUGGUGACUCUGCGAAUUCUGCUGU [C7U A52C] to GGGGGCUACAGCAGAAGCGUUCACGUCGCGGCCCCUGUCAGAUUCUGGUGAAUCUGCGUAUUCUGCUGU [C7U A59U], the self-cleavage falls from 0.914 to 0.554.

Going from GGGGGCUACAGCAGAAGCGUUCACGUCGCGGCCCCUGUCAGAUUCUGGUGAAUCUGCGCAUUCUGCUGU [C7U A59C] to GGGGGCUACAGCAGAAGCGUUCACGUCGCGGCCCCUGUCAGAUUCUGGUGAAUCUGCGGAUUCUGCUGU [C7U A59G], the self-cleavage rises from 0.403 to 0.93.

Going from GGGGGCUACAGCAGAAGCGUUCACGUCGCGGCCCCUGUCAGAUUCUGGUGAAUCUGCGAAUUCUGCUGU [C7U] to GGGGGCGACAGCAGAAGCGUUCACGUCGCGGCCCCUGUCAGAUUCUGGUGAAUCUGCGAAUUCUGCUGC [C7G U69C], the self-cleavage falls from 0.968 to 0.861.

First: GGGGGCGACAGCAGAAGCGUUCACGUCGCGGCCCCUGUCAGAUUCUGGUGAAUCUGCGAAUUCUGCUGG [C7G U69G]
Second: GGGGGCUACAGCAGAAGCGUUCGCGUCGCGGCCCCUGUCAGAUUCUGGUGAAUCUGCGAAUUCUGCUGU [C7U A23G]
The self-cleavage of the first is lower: 0.779 for the first, 0.909 for the second.

First: GGGGGCUACAGCAGAAGCGUUCUCGUCGCGGCCCCUGUCAGAUUCUGGUGAAUCUGCGAAUUCUGCUGU [C7U A23U]
Second: GGGGGCUACAGCAGAAGCGUUCCCGUCGCGGCCCCUGUCAGAUUCUGGUGAAUCUGCGAAUUCUGCUGU [C7U A23C]
The self-cleavage of the first is higher: 0.955 for the first, 0.87 for the second.

Compared with GGGGGCUACAGCAGAAGCGUUCACGUCGCGGCCCCUGUCAGAUUCUGGUGAAUCUGCGAUUUCUGCUGU [C7U A60U], GGGGGCUACAGCAGAAGCGUUCACGUCGCGGCCCCUGUCAGAUUCUGGUGAAUCUGCGAGUUCUGCUGU [C7U A60G] is higher in self-cleavage: 0.244 for the first, 0.789 for the second.

First: GGGGGCUACAGCAGAAGCGUUCACGUCGCGGCCCCUGUCCGAUUCUGGUGAAUCUGCGAAUUCUGCUGU [C7U A40C]
Second: GGGGGCUACAGCAGAAGCGUUCACGUCGCGGCCCCUGUCUGAUUCUGGUGAAUCUGCGAAUUCUGCUGU [C7U A40U]
The self-cleavage of the first is lower: 0.282 for the first, 0.683 for the second.

First: GGGGGCUACAGCAGAAGCGUUCACGUCGCGGCCCCUGUCGGAUUCUGGUGAAUCUGCGAAUUCUGCUGU [C7U A40G]
Second: GGGGGCUACAGCAGGAGCGUUCACGUCGCGGCCCCUGUCAGAUUCUGGUGAAUCUGCGAAUUCUGCUGU [C7U A15G]
The self-cleavage of the first is higher: 0.934 for the first, 0.927 for the second.

Going from GGGGGCUACAGCAGUAGCGUUCACGUCGCGGCCCCUGUCAGAUUCUGGUGAAUCUGCGAAUUCUGCUGU [C7U A15U] to GGGGGCUACAGCAGCAGCGUUCACGUCGCGGCCCCUGUCAGAUUCUGGUGAAUCUGCGAAUUCUGCUGU [C7U A15C], the self-cleavage rises from 0.534 to 0.693.

Going from GGGGGCUACUGCAGAAGCGUUCACGUCGCGGCCCCUGUCAGAUUCUGGUGAAUCUGCGAAUUCUGCUGU [C7U A10U] to GGGGGCUACGGCAGAAGCGUUCACGUCGCGGCCCCUGUCAGAUUCUGGUGAAUCUGCGAAUUCUGCUGU [C7U A10G], the self-cleavage falls from 0.981 to 0.947.

First: GGGGGCUACCGCAGAAGCGUUCACGUCGCGGCCCCUGUCAGAUUCUGGUGAAUCUGCGAAUUCUGCUGU [C7U A10C]
Second: GGGGGCGACAGCAGAAGCGUUCACGUCGCGGCCCCUGUCAGAUUCUGGUGAAUCUGCGAAUGCUGCUGU [C7G U62G]
The self-cleavage of the first is higher: 0.994 for the first, 0.244 for the second.

Going from GGGGGCUACAGCAGACGCGUUCACGUCGCGGCCCCUGUCAGAUUCUGGUGAAUCUGCGAAUUCUGCUGU [C7U A16C] to GGGGGCUACAGCAGAUGCGUUCACGUCGCGGCCCCUGUCAGAUUCUGGUGAAUCUGCGAAUUCUGCUGU [C7U A16U], the self-cleavage rises from 0.145 to 0.617.

First: GGGGGCUACAGCAGAAGCGUUCACGUCGCGGCCCCUGUCAGCUUCUGGUGAAUCUGCGAAUUCUGCUGU [C7U A42C]
Second: GGGGGCUACAGCAGAAGCGUUCACGUCGCGGCCCCUGUCAGUUUCUGGUGAAUCUGCGAAUUCUGCUGU [C7U A42U]
The self-cleavage of the first is higher: 0.901 for the first, 0.899 for the second.

Going from GGGGGCUACAGCCGAAGCGUUCACGUCGCGGCCCCUGUCAGAUUCUGGUGAAUCUGCGAAUUCUGCUGU [C7U A13C] to GGGGGCUACAGCGGAAGCGUUCACGUCGCGGCCCCUGUCAGAUUCUGGUGAAUCUGCGAAUUCUGCUGU [C7U A13G], the self-cleavage rises from 0.871 to 0.936.

Going from GGGGGCUGCAGCAGAAGCGUUCACGUCGCGGCCCCUGUCAGAUUCUGGUGAAUCUGCGAAUUCUGCUGU [C7U A8G] to GGGGGCUUCAGCAGAAGCGUUCACGUCGCGGCCCCUGUCAGAUUCUGGUGAAUCUGCGAAUUCUGCUGU [C7U A8U], the self-cleavage rises from 0.918 to 0.945.

First: GGGGGCUCCAGCAGAAGCGUUCACGUCGCGGCCCCUGUCAGAUUCUGGUGAAUCUGCGAAUUCUGCUGU [C7U A8C]
Second: GGGGGCGACAGCAGAAGCGUUCACGUCGCGGCCCCUGUCAGAUUCUGGUGAAUCUGCGAAUUCUGCCGU [C7G U67C]
The self-cleavage of the first is higher: 0.954 for the first, 0.635 for the second.

In the case of GGGGGCGACAGCAGAAGCGUUCACGUCGCGGCCCCUGUCAGAUUCUGGUGAAUCUGCGAAUUCUGCAGU [C7G U67A], the self-cleavage is reported as 0.773.
